Test results: patent publication US10379127B2, “Marker of cell death” (priority 2013, dated 2019)

B1: MAb2C4:AF568: mouse anti-human CTR antibody (IgG1) that binds an extracellular epitope, conjugated with AlexaFluor 568 (conjugate)
VH: QVHLQQSGAELARPGASVRLSCEASGYTFTKYWMQWIKQRPGQGLEWIGAIYPGDGDSRYTPKFKGKATLTADKSSGTAYIQLSSLASEDSAVYYCARGDGTYWGQGTLVTVSA
VL: DIQMTQSPASLSASVGETVTITCRASENIYSYLAWYQQKQGKSPQLLVYKAKTLEEGVPSRFSGSGSGTQFSLKINSLQPEDFGSYYCQHHYGTPRTFGGGTKLEIK

How the values were obtained:
[1] = system: Jurkat cells; assay: Relative proportions of live, apoptotic and dead Jurkat cells challenged with staurosporine (Sytox Red and MAb2C4:AF568 staining); format: cell-based; details: 2×10^−7M, 5×10^−7M and 10×10^−7M for 40 hours, FIG. 10
Description: Analysis of relative proportions of live, apoptotic and dead Jurkat cells challenged with 2×10^−7M, 5×10^−7M and 10×10^−7M staurosporine for 40 hours.

[2] = system: Jurkat cells; assay: FACS analysis of Jurkat cells induced to undergo Programmed Cell Death, live-stained with antibody:fluorophore conjugate; format: cell-based
Description: FIG. 6. Scatter plots from FACS analysis of Jurkat cells treated with the cytotoxin staurosporine (5×10^-7M) for 40 hours to induce Programmed Cell Death including apoptosis and finally cell death (necrosis). The populations of live, apoptotic and dead cells were live-stained with 1 μg/mL MAb2C4:AF568 and/or annexin V:AF488 and the fluorescence intensity (FI) of each shown on the ordinate and abscissa respectively. A: Cell populations stained with MAb2C4:AF568 alone; B: Cell populations stained with MAb2C4:AF568 plus annexin V:AF488; C: Cell populations stained with annexin V:AF488 alone; D: Cell populations stained with MAbFLAG:AF568 plus annexin V:AF488; E: No additions.
FIG. 7. Histograms from FACS analysis of Jurkat cells induced to undergo Programmed Cell Death [PCD] (as for FIG. 6). Shown are overlaid curves representative of live, apoptotic and necrotic (dead) cell populations [A, B & C]. In D these curves are aligned for ease of comparison.
FIG. 8. Overlaid scatter plots showing increasing FI of apoptotic and dead Jurkat populations stained with MAb2C4:AF568 compared to the MAbFLAG:AF568 isotype control.
FIG. 9. Scatter plots showing FI with MAb2C4:AF568 (abscissa) and/or Sytox Red (ordinate). A: Sytox Red alone; B: Increased FI of apoptotic, transition and dead (necrotic) cell populations stained with MAb2C4:AF568; C: Overlaid dot plots of A & B.
MAb2C4 is a mouse anti-human CTR antibody (IgG1) that binds an extracellular epitope and has been conjugated with AlexaFluor 568 (MAb2C4:AF568). […] MAb2C4:AF568 was validated using cell lines expressing human calcitonin receptor (hCTR).
MAbFLAG:AF568 is an IgG1 isotype control. This conjugate was validated using a stable transfectant HEK293 cell line that expresses the PA receptor tagged with a FLAG epitope sequence. The FLAG epitope is positioned on the cell surface. Annexin V:AF488 binds the plasma membrane of dying (apoptotic) and dead (necrotic) cells.

Molecule	proportion of live cells [1]	proportion of apoptotic and dead cell populations ([1]; Sytox Red and MAb2C4:AF568 staining)	binding to apoptotic and dead cells ([2]; Example 5 summary statement)	FI (red channel) of apoptotic and dead cell populations, histograms ([2]; Jurkat cells induced to undergo PCD as for FIG. 6, compared to MAbFLAG:AF568 isotype control, FIG. 7)	fluorescence intensity (FI), scatter plots ([2]; Jurkat cells, staurosporine 5×10^-7M for 40 hours, live-stained 1 μg/mL, with or without annexin V:AF488, FIG. 6)	FI of apoptotic and dead Jurkat populations, overlaid scatter plots ([2]; compared to MAbFLAG:AF568 isotype control, FIG. 8)	FI of apoptotic, transition and dead (necrotic) cell populations ([2]; scatter plots with Sytox Red on the ordinate, FIG. 9)
CN[C@@H]1C[C@H]2O[C@@](C)([C@@H]1OC)n1c3ccccc3c3c4c(c5c6ccccc6n2c5c31)C(=O)NC4 [staurosporine]	decreases with increasing concentrations	increases	–	–	–	–	–
B1	–	–	binds apoptotic cells and is accumulated into dead cells	increase in FI	increased FI	increasing FI	Increased FI
